According to article PMC4161475:

Target: G-actin (rabbit skeletal muscle actin, monomeric) (rabbit) (UniProt P68135)
Test: ELISA; solid-phase assay: wells coated with 5 µM G-actin in PBS, 5 µM protein added, detected with anti-EhCoactosin antibody; in the presence of Ca2+ (2 mM) or EGTA (5 mM)

Substance: EhCoactosin with the C-terminal 14 residues deleted (domain or fragment)
- percent decrease in binding against WT: 33%
